Ends that are not written are not given here.
T1: His-tagged P3028 (human, also: His tag, length and end not given here)
T1 construct: in solution at 0.5 ug/mL, detected with mouse anti-His antibody and rabbit anti-mouse peroxidase (rampo); also called PGE73; His-tag-P3028; not shown: His tag
T1 peptide: VFDEFKPLVEEPQNLIK

T2: P3028 (VFDEFKPLVEEPQNLIK, SEQ ID NO: 185), His-tagged (human)
T2 construct: Synthetic fragment of human serum albumin (positions 397-413); used in solution as His-tagged peptide PGE73; also called PGE73; not shown: His-tag
T2 peptide: VFDEFKPLVEEPQNLIK


Target: T1, His-tagged P3028
Assay: PEPSCAN ELISA, peptide on chip;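 further: binding detected by peroxidase ELISA with ABTS, OD405 colour imaged by CCD camera before and after staining, raw OD405 reported as rampo units, air-bubble wells scored 0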
Method: After washing, the peroxidase substrate 2,2′-azine-di-3-ethylbenzthiazoline sulfonate (ABTS) and 2 μL of 3% H2O2 were added. The binding capacity of the mAb was measured as a color development at 405 nm (optical density, OD405). The color development was quantified with a charge-coupled device (CCD)—camera and an image processing system.
The OD405-values obtained by a CCD-camera was considered as raw data values (“rampo values,” “rampo units,” or “rampo scores”). […] First the CCD-camera made a picture of the card before peroxidase coloring and then again a picture after the peroxidase coloring. […] These values were copied into an excel file and labeled as a raw data file. […] Sometimes a well can contain an air-bubble resulting in a false-positive value. If manual inspection of the cards detect an air-bubble the value are set to 0 for well.
AKLDTFFVKLSLFTER [SEQ ID NO 268] was tested, and the “RAMPO Score” value was 466 rampo units.
GKLDTFFVKLSLFTER [SEQ ID NO 271] was tested, and the “RAMPO Score” value was 367 rampo units.
For IKLDTFFVKLSLFTER [SEQ ID NO 273], the “RAMPO Score” value was 483 rampo units.
DKLDTFFVKLSLFTER [SEQ ID NO 269] was tested, and the “RAMPO Score” value was 373 rampo units.
For HKLDTFFVKLSLFTER [SEQ ID NO 272], the “RAMPO Score” value was 428 rampo units.
In the case of LKLDTFFVKLSLFTER [SEQ ID NO 274], the “RAMPO Score” value is reported as 449 rampo units.
EKLDTFFVKLSLFTER [SEQ ID NO 270] was tested, and the “RAMPO Score” value was 396 rampo units.

Target: T2, P3028 (VFDEFKPLVEEPQNLIK, SEQ ID NO: …)
Assay: PEPSCAN ELISA; peptide on chip, His-P3028 added;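 further: peroxidase color development with ABTS and H2O2 substrate, OD405 imaged by CCD camera with image processing and taken as raw values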
With KKLDTTFVKLSLFTER [KKLDTTFVKLSLFTER (SEQ ID NO: 318)] the “RAMPO Score” value was 481 rampo units.
For RKLDTFFVKLSLFTER [RKLDTFFVKLSLFTER (SEQ ID NO: 279)], the “RAMPO Score” value was 523 rampo units.
With KRLDTFFVKLSLFTER [KRLDTFFVKLSLFTER (SEQ ID NO: 407)] the “RAMPO Score” value was 417 rampo units.
In the case of KLLDTFFVKLSLFTER [KLLDTFFVKLSLFTER (SEQ ID NO: 454)], the “RAMPO Score” value is reported as 343 rampo units.
For KKLHTFFVKLSLFTER [KKLHTFFVKLSLFTER (SEQ ID NO: 479)], the “RAMPO Score” value was 317 rampo units.
In the case of KKLGTFFVKLSLFTER [KKLGTFFVKLSLFTER (SEQ ID NO: 515)], the “RAMPO Score” value is reported as 264 rampo units.
With KKLDTYFVKLSLFTER [KKLDTYFVKLSLFTER (SEQ ID NO: 434)] the “RAMPO Score” value was 364 rampo units.
With KKTDTFFVKLSLFTER [KKTDTFFVKLSLFTER (SEQ ID NO: 296)] the “RAMPO Score” value was 451 rampo units.
KKWDTFFVKLSLFTER [KKWDTFFVKLSLFTER (SEQ ID NO: 458)] was tested, and the “RAMPO Score” value was 341 rampo units.
In the case of KPLDTFFVKLSLFTER [KPLDTFFVKLSLFTER (SEQ ID NO: 405)], the “RAMPO Score” value is reported as 425 rampo units.
For TKLDTFFVKLSLFTER [TKLDTFFVKLSLFTER (SEQ ID NO: 280)], the “RAMPO Score” value was 493 rampo units.
KKSDTFFVKLSLFTER [KKSDTFFVKLSLFTER (SEQ ID NO: 295)] was tested, and the “RAMPO Score” value was 393 rampo units.
For KKLDTFFKKLSLFTER (also called SCF 27; SCF27) [P27 (KKLDTFFKKLSLFTER, SEQ ID NO: 264)], the “RAMPO Score” value was 253 rampo units.
In the case of KKVDTFFVKLSLFTER [KKVDTFFVKLSLFTER (SEQ ID NO: 297)], the “RAMPO Score” value is reported as 377 rampo units.
With KKLDVFFVKLSLFTER [KKLDVFFVKLSLFTER (SEQ ID NO: 429)] the “RAMPO Score” value was 374 rampo units.
In the case of VKLDTFFVKLSLFTER [VKLDTFFVKLSLFTER (SEQ ID NO: 281)], the “RAMPO Score” value is reported as 442 rampo units.
In the case of KKLDYFFVKLSLFTER [KKLDYFFVKLSLFTER (SEQ ID NO: 312)], the “RAMPO Score” value is reported as 425 rampo units.
For YKLDTFFVKLSLFTER [YKLDTFFVKLSLFTER (SEQ ID NO: 483)], the “RAMPO Score” value was 315 rampo units.
In the case of KKLRTFFVKLSLFTER [KKLRTFFVKLSLFTER (SEQ ID NO: 480)], the “RAMPO Score” value is reported as 317 rampo units.
PKLDTFFVKLSLFTER [PKLDTFFVKLSLFTER (SEQ ID NO: 277)] was tested, and the “RAMPO Score” value was 387 rampo units.
For KNLDTFFVKLSLFTER [KNLDTFFVKLSLFTER (SEQ ID NO: 402)], the “RAMPO Score” value was 432 rampo units.
With KQLDTFFVKLSLFTER [KQLDTFFVKLSLFTER (SEQ ID NO: 440)] the “RAMPO Score” value was 350 rampo units.
With KKLSTFFVKLSLFTER [KKLSTFFVKLSLFTER (SEQ ID NO: 451)] the “RAMPO Score” value was 344 rampo units.
With KKNDTFFVKLSLFTER [KKNDTFFVKLSLFTER (SEQ ID NO: 292)] the “RAMPO Score” value was 374 rampo units.
KKLWTFFVKLSLFTER [KKLWTFFVKLSLFTER (SEQ ID NO: 302)] was tested, and the “RAMPO Score” value was 443 rampo units.
In the case of KKLYTFFVKLSLFTER [KKLYTFFVKLSLFTER (SEQ ID NO: 303)], the “RAMPO Score” value is reported as 422 rampo units.
With KKQDTFFVKLSLFTER [KKQDTFFVKLSLFTER (SEQ ID NO: 293)] the “RAMPO Score” value was 473 rampo units.
In the case of KKLDTVFVKLSLFTER [KKLDTVFVKLSLFTER (SEQ ID NO: 319)], the “RAMPO Score” value is reported as 547 rampo units.
In the case of NKLDTFFVKLSLFTER [NKLDTFFVKLSLFTER (SEQ ID NO: 276)], the “RAMPO Score” value is reported as 445 rampo units.
With KKLQTFFVKLSLFTER [KKLQTFFVKLSLFTER (SEQ ID NO: 448)] the “RAMPO Score” value was 345 rampo units.
In the case of KKLKTFFVKLSLFTER [KKLKTFFVKLSLFTER (SEQ ID NO: 512)], the “RAMPO Score” value is reported as 274 rampo units.
With KWLDTFFVKLSLFTER [KWLDTFFVKLSLFTER (SEQ ID NO: 490)] the “RAMPO Score” value was 304 rampo units.
For KKRDTFFVKLSLFTER [KKRDTFFVKLSLFTER (SEQ ID NO: 294)], the “RAMPO Score” value was 370 rampo units.
In the case of KKLTTFFVKLSLFTER [KKLTTFFVKLSLFTER (SEQ ID NO: 413)], the “RAMPO Score” value is reported as 405 rampo units.
For SKLDTFFVKLSLFTER [SKLDTFFVKLSLFTER (SEQ ID NO: 453)], the “RAMPO Score” value was 344 rampo units.
WKLDTFFVKLSLFTER [WKLDTFFVKLSLFTER (SEQ ID NO: 507)] was tested, and the “RAMPO Score” value was 284 rampo units.
With KKLFTFFVKLSLFTER [KKLFTFFVKLSLFTER (SEQ ID NO: 426)] the “RAMPO Score” value was 380 rampo units.
In the case of QKLDTFFVKLSLFTER [QKLDTFFVKLSLFTER (SEQ ID NO: 278)], the “RAMPO Score” value is reported as 455 rampo units.
In the case of KKLMTFFVKLSLFTER [KKLMTFFVKLSLFTER (SEQ ID NO: 423)], the “RAMPO Score” value is reported as 384 rampo units.
KKLNTFFVKLSLFTER [KKLNTFFVKLSLFTER (SEQ ID NO: 498)] was tested, and the “RAMPO Score” value was 296 rampo units.
For KKPDTFFVKLSLFTER [KKPDTFFVKLSLFTER (SEQ ID NO: 436)], the “RAMPO Score” value was 361 rampo units.
With KSLDTFFVKLSLFTER (also called 30684) [KSLDTFFVKLSLFTER (SEQ ID NO: 510)] the “RAMPO Score” value was 281 rampo units.
For MKLDTFFVKLSLFTER [MKLDTFFVKLSLFTER (SEQ ID NO: 275)], the “RAMPO Score” value was 457 rampo units.
For KKLETFFVKLSLFTER [KKLETFFVKLSLFTER (SEQ ID NO: 299)], the “RAMPO Score” value was 417 rampo units.
KTLDTFFVKLSLFTER [KTLDTFFVKLSLFTER (SEQ ID NO: 468)] was tested, and the “RAMPO Score” value was 331 rampo units.
In the case of KYLDTFFVKLSLFTER [KYLDTFFVKLSLFTER (SEQ ID NO: 494)], the “RAMPO Score” value is reported as 301 rampo units.
In the case of KKLDTWFVKLSLFTER [KKLDTWFVKLSLFTER (SEQ ID NO: 444)], the “RAMPO Score” value is reported as 348 rampo units.
KKLPTFFVKLSLFTER [KKLPTFFVKLSLFTER (SEQ ID NO: 435)] was tested, and the “RAMPO Score” value was 364 rampo units.
LKLDTFFVKLSLFTER [LKLDTFFVKLSLFTER (SEQ ID NO: 274)] was tested, and the “RAMPO Score” value was 449 rampo units.
With KKMDTFFVKLSLFTER [KKMDTFFVKLSLFTER (SEQ ID NO: 291)] the “RAMPO Score” value was 460 rampo units.
With KKLLTFFVKLSLFTER [KKLLTFFVKLSLFTER (SEQ ID NO: 491)] the “RAMPO Score” value was 303 rampo units.
In the case of KKYDTFFVKLSLFTER [KKYDTFFVKLSLFTER (SEQ ID NO: 452)], the “RAMPO Score” value is reported as 344 rampo units.
KKLITFFVKLSLFTER [KKLITFFVKLSLFTER (SEQ ID NO: 300)] was tested, and the “RAMPO Score” value was 430 rampo units.
For KKLDWFFVKLSLFTER [KKLDWFFVKLSLFTER (SEQ ID NO: 311)], the “RAMPO Score” value was 418 rampo units.
KMLDTFFVKLSLFTER [KMLDTFFVKLSLFTER (SEQ ID NO: 417)] was tested, and the “RAMPO Score” value was 400 rampo units.
In the case of KVLDTFFVKLSLFTER [KVLDTFFVKLSLFTER (SEQ ID NO: 481)], the “RAMPO Score” value is reported as 317 rampo units.

From patent US20180177842A1 (CANIMGUIDE THERAPEUTICS, published 2018)
